Assay results as given in the domain aggregation screens of Martell et al. (2025).

assay: soluble fraction after stress (log2 fold change); higher = more stays soluble; pooled small domains, quantitative proteomics; conditions: stress: 50 degC
Method in brief: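 Pooled custom libraries of small protein domains were each held under stress at 50°C. The read-out, high-throughput quantitative proteomics, tracked how much of each protein stayed soluble. This is reported as a base-two log fold change used to indicate aggregation propensity. Higher values mean more protein remains in solution.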

Row | Sequence | soluble fraction (log2)
1 | HMSVALSENIKTRRKALKMSQEYVAEQLDISRQAVAKWEAGKSEPTTENLVKLAALFEMSVSELVE | -0.369
2 | HMVVNERIKKLRRSLDLTQQEFADRIGVKRNTIANYEIGRNEPIDSVLELIVREFGVSKQWLLDGTGEMF | -0.55
3 | HMTKIAFPQMLNKYRLQKNLTMEQLAEEVGKTKSTISKWEAGTRSPKIYEIEEIAKYFGVEPQTMMF | -0.453
4 | HMKEETEMVTIPDVTGKPLTEAANLLREAKLDYLAESTGTSVTKQMPLPGAEVMVNTTVLLYTG | 0.156
5 | HMDPERVVGQTGIVHLRIPARQHNTGKVMIEVQGSLREFDAVSEAEEIPTGTPILIVGRTEEGVFIAQPF | -0.0467
6 | HMFESQYIGKIATAITDISAFSGRLKIYDENWEARTLGEDAPEIKKGAKVKIVRHDDLTMFVEKK | -0.034
7 | HMLPLPRFASLDSSEANLRAGPGKDYPILWVYQRKGLPVEIIQEFDTWRRIRDRDGTVGWVQQNLL | -0.405
8 | HMHLYDMYNLTEKEISIIRLIANGLNNKEISQELFLSEGTIKNNITNILAKLELRDRTQLAIFAFKNKIVI | -0.484
9 | HMNIDVAAEKQQLGPNADQIVKGTVTWMQGLVAKGIWSETDFEEGKIFTATADGINAINKIRRYYGEQT | -0.0611
10 | HMTGWINVDKNWYYMNNSGSMARGMINVNNVSYYLDENGKMLSNTTVNVNGTDYRIDASGAMSQI | -0.564
11 | HMTGDNQTIGGGGFHHVAIRAHDFDASVKFYGETLGFREKIAWGEGDKRAIMMDTGDGNYIEIF | 0.197
12 | HMYYHQIIGLDVVDENGNTLGKIKEILSPGANDVWVVKRKQKNDLLLPVIDDVIKDVDLAAGKVHVELLEG | -0.0975
13 | HMGIAEGSSVFVRVLAAEDGGRYTVSFAGRRFSVLSRQALGIGSAFRADVKVEKGQVLLVPR | -2.37
14 | HMLGWEDVIQFEEVKGYGQHIWRDGNHLYYVTEEGGIAPQRVVYELPNELFALLESGERTQLEILSKLQ | -3.11
15 | HMSELTKEIGKRIHDFRKSRGLNQEELARLIYKSKATLSKYEKGEIAIDLDTLKQLALALHVRMEQLLPPT | -0.0472
16 | HMSSVHTMEVKSTTQIKVLDENKNLSSYYSMKNPVSFNYRLFFLNQDELKKLQEDLKTNNDIQSIDIKYA | -0.753
17 | HMKVTQDIIFKRNGEEIKSKVLEITPDLIIYIDYSRADNIAREINISEVNMIIYKNGTSEIFSRPEE | 0.101
18 | HMAHKRVDGTIVTPLTADTIVLRTGTHGEQPFEIRDTTRHKLESLQKGDMVILLIDTDNKVIDVAIPP | 0.423
19 | HMQKIYTIARGDTLSHIVAGTLKQQGIAYTTGELYRLVNVVAQYNDILNPNRIYTGHQLDLTPLYSED | -0.103
20 | HMRARTQYWPFVEEKAAELKLPLHLVNVEPLFGEQKVVVHYTANGRIDFRELVHLLARRFHARIEMR | 0.212
21 | HMLTKSELVFDTLKKRIIDGELEPGTELVISRISEEFNVSTIPVREAIKTLASEGLVEMEPHKSAKVAE | -0.0631
22 | HMNMVSGHLQVKKGYYYAVLSFYDSKNKRHVKYISTGLPEKGNKRKAEAELVKIRNAFEPPAE | -0.338
23 | HMLTLDEKRRLQIMRVQVALTSLGLYNGRVDGVLNAETKLGLEFFQDLKGLPKSGTMTTPTLNALGVPA | -0.423

Row | Sequence | soluble fraction (log2)
24 | HMNEDFSEIIAAVKKFAVDNLSLSTLSDEELEEQIKTITDNMIGNRYVSIKNRVDIAQQVFSSIR | -0.0581
25 | HMDFIEYIISEESKGLRADQAISMENDKFSRSLIQKWIKKGRVLVNGRKIKPKDIVNLNDKITINPEESIN | -0.143
26 | HMAKSPYDVLGLKEDAPFDEVKKRYRELVKKYHPDILMGRGESEEMIEKSTRKLQEINEAYETIKQRA | 0.118
27 | HMGEKVIAVSGGFDPIHVGHLRMMQDAAQHGRLVVIVNSDEWLLKKKGYVFMPWEERAELIGAYDFVDE | -0.977
28 | HMEKKPYGEMHNVMLTDEELEKLRHDYPAHFAEYIQRLSLHIDAKGARYKSHYAVIRKWLIADGVKA | -0.679
29 | HMADVSPEAQHKMVEAFAQFGVTKEHIEQRIQRRLDAIQPAQMVTLKRIFASLRDGMSTPAEWFE | -0.227
30 | HMAFIEIMTEGDADGRGFQYPIPTYSITRDFDWSETENNKLLFEMTAKYGTPYFSNYINSDMEPSDV | -0.535
31 | HMGTLSLLVQKLMAVGLEGAKASEIVERFDRERIERQINALPSRKIKSSRTGFLIRAIELDIPVE | -2.09
32 | HMADKGTITNQQEKILKALILFPEGASIEEIQKAADLGIDKRQFQRRLNTLIESGQINRTGKSRGTKYHTI | 0.0555
33 | HMQFYSGLEARLMDPNTPEVFDDPISLMAFLQQKNISRVELEDNLLLPYLKEMAGQPIPKAELLEIIRK | -0.475
34 | HMEELLVAVKADGSIWADGRPITPDGLASFIDSKPADAVLNLAVDKKAPFAAFVKVVDVAKEKKSGRFVIR | 0.0577
35 | HMREWPLWEIFIRGQHGLNHRHVGSLHAPDAAMAIGNARDVYTRRNEGVSIWAVRSADVVASVPSE | -2.33
36 | HMDDLFGNAIEMFNNQRYDMTYELLVQLLSETPNNEKAWQLLADTKFMLGDYDDALHIVGKAAK | -0.89
37 | HMAVKYTKDDFLYTEKPYEAIYDYKNDPFMHNLKIEQMAQQAAEVGVKTFKGLYKNYVKMREMQRGANV | 0.14
38 | HMEREQNIAQGREVVQRELKRLGLTDVFTVEDIGRALKFDDIDEFLSKVGFGDIQTAKITGAIALMQQALR | 0.0611
39 | HMTKINAPMPGNILDVKVNVGDHVEANQLVLMLEAMKMENEIFTPVAGTVVGVHVKKGDSVNSDDLLISI | -0.228
40 | HMETLYGQIVNDIMEKIESNAWPVGYVIPTESDFQKQYGVSRATVRNAILKLAHLGYLVRKKGSGTYVTRP | -0.975
41 | HMSVPSVAAVREQTGLSQVKFASLLGVSVRTLQEWEQGRRAPSGAARTLLMVAAKNPQALLEV | -0.584
42 | HMELNGVSETAKSVYSIILNNSSTVDDIVIKTKLPAAKVMQALTELELNDAVERKSGGVYALP | 0.13
43 | HMDAEWRTLTLAPEQHQQRLDRALADSLPEFSRSYVQQLIDTGMVRVNGVLAAKSAQRVKALDQVQVELR | -0.229
44 | HMKTPIEFGSVYNDPVRYVIGMSIKSAESINQAIYDMMKIFGDENNMNKFDSLPDEQAVLDMVNSF | 0.0157
45 | HMKKITTANPLDINRATLAQLDTLPGIGPVTAERIIAYRSKVGRINSLDELKKISGLGGMKFEEIKPLLRV | 0.042
46 | HMLNIVTIFEEQFGRPLSPIELNIIKDWKESDYSDEMIVKALKEAVKSQVLNFRYVEGILNNWAKNG | -0.568

Row | Sequence | soluble fraction (log2)
47 | HMKTKTFSPGEIVKIQTRDKSWQGTILESHDPEIILLKLTTGYNIGIRENEIINAKVIEKSKKDVKDAE | 0.183
48 | HMSPFAHHLHELRMRHGIRQNELAELIGYDQTYISALEVGLKGPPTPEFVDKLVEGLALSRTEEAALRSAA | -0.482
49 | HMKKNLELGLLPHEVKSILGEPDFIDTITDIDGIRYDMWSYTKLNVTKRLYFEDLFLVRMEE | -1.43
50 | HMINFLSKREIEVLRLVADGLSNRDVGQYLFISESTVKRHLSTIYEKLAVKSRTQAIDHARRADL | -3.91
51 | HMTKGVQMFAEQLKRTRQSRHYSQAEIASKLGVTQQAIAKWETGVSTPSPTSISKLSDILGISTDVLLKGA | 0.0763
52 | HMQMSWDAVKARLQDIVNNEDKTKPFNDEMLASKLKEQGIEIARRTVVKYRQQLGIPAARLRKK | -0.468
53 | HMGEPTLTIRVVSYNPQSGEMVVVARDPLSGRYALATLNVRTGAGQMIGPQGELLPIENFALGS | -0.985
54 | HMRAEELEQFVERLKNEVMNNFPLKELSDNELREKIENLVEIRLANVYVSIEQRVAIAEQIYSSIR | -0.0429
55 | HMPLITLSAEIQSEQIGQRLDQTLAELFPEYSRSRLKTWIEADLVKLNNQIVNIPREKVLGGEHVEITVDI | -0.611
56 | HMKISDMIETNLKFLRGKHSISQAELAESLGIPRTTLSAYERGFVEPNIELMLKMAKYFNVSLDDLIAYN | -1.88
57 | HMPRVSIEKIKKVVELLKHNPDYTYSKIGNIVGIGRKTVSGINNGKLYTDLVEELGINEFPI | -0.292
58 | HMIKRETNDNPVDPASLSLGDRVKILTLNQNGEIISLPDEKGLLQVQVGIMKIGVNVSDIMLI | -0.0513
59 | HMKTLKHYFASIAHEFGREEAELMLLSVFKTPFEQRLMLFMKDPALTEAQVQQLDNLVRQRKQGVPLPYIL | -0.22
60 | HMHKIRRQTKITKSLLDQIEGIGSSRKKALLNHFGSAKAVGEAGETDLGTVKGISNSLAKKIYDFFHAT | -0.281
61 | HMAGEDPANLELMRLMDEEYMEHPTKGVLGMVDFLRALGILTGPKRVRRLLRKMGIMAIYPK | -0.0379
62 | HMQRSVKNNDTVQVHYTGKLTNGQIFDSSIDKQPLEFQLGQGQIIPGFEKGLIDMTVSEKKTITIPEAEAY | 0.1
63 | HMHGLNQNKPIPIADIVNSVNNYLTSLGKKTITDNSVLSNLKKAAKYLNTAYNLVLRPDSLNMTVTLL | 0.0467
64 | HMKRKAIDQSWQPDKEAIEILSKAGVNEEFIKEEIPEFILYWSEKGEESDTWNSKFIAQVRRQWAKTQH | -0.0567
65 | HMIPEILNGYTKWGDDEPFEDHAGPFYMKMMPSTGRHLSAFIPEQRHMNGGGFLHGGMLMSFADYALFVI | 0.00747
66 | HMSVLLKEEGSLQLARHGAAYFIIYSAQEHPNQRRHLKISEEESNRIMEGTPIEEIFLAYSG | -0.291
67 | HMSSGKTGTITLQPKQTVYGITKQYKISEADLRKLNPQLDSNLKIGDKITLPLDNIQRYSDSSSNVAQT | 0.211
68 | HMFSGVQLGQAISEAIKRKNVSQKEVADHFGVKQPSVSGWIKNGRIDKKHLDKLIDYFSDVVTPSHFGIE | 0.246
69 | HMKGVPGIGDYVKLSGGSTVGKVLSISGKKAEVAFGLLRTTTELSKLEKVRKPKELLQSGVSS | 0.269
